Data as given in the supplement of paper PMC9112550, “Optimization of the antimicrobial peptide Bac7 by deep mutational scanning” (BMC Biology, 2022).

Tested on: Escherichia coli TOP10
Assay: shrunken log2 fold change of peptide-encoding DNA abundance (4.5 h post-induction vs induction); higher = less antimicrobial activity (less host growth inhibition)
Settings: time post-induction: 4.5 h; library: site-saturation at positions 5, 18, 19, 20
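Further: peptides expressed intracellularly from a pBAD plasmid library in pooled LB shake-flask culture, induced with 0.3% L-arabinose, DNA abundance read by NGS, three biological replicates, DESeq2 with apeglm shrinkage.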

## RRIRVRPPRLPRPRPRPREEPRP
  shrunken log2 fold change: 0.493

## RRIRDRPPRLPRPRPRPGNVPRP
  shrunken log2 fold change: -0.0882

## RRIRPRPPRLPRPRPRPSVSPRP
  shrunken log2 fold change: -0.504

## RRIRDRPPRLPRPRPRPCHLPRP
  shrunken log2 fold change: -0.00196

## RRIRCRPPRLPRPRPRPVFWPRP
  shrunken log2 fold change: 0.138

## RRIRWRPPRLPRPRPRPAHCPRP
  shrunken log2 fold change: -0.0174

## RRIRKRPPRLPRPRPRPKEKPRP
  shrunken log2 fold change: 0.0508

## RRIRVRPPRLPRPRPRPEWAPRP
  shrunken log2 fold change: 0.0253

## RRIRARPPRLPRPRPRPLLDPRP
  shrunken log2 fold change: 0.788

## RRIRNRPPRLPRPRPRPLMDPRP
  shrunken log2 fold change: 0.0545

## RRIRYRPPRLPRPRPRPTDGPRP
  shrunken log2 fold change: -0.0848

## RRIRARPPRLPRPRPRPAEPPRP
  shrunken log2 fold change: 0.443

## RRIRMRPPRLPRPRPRPCETPRP
  shrunken log2 fold change: -0.263

## RRIRTRPPRLPRPRPRPVKWPRP
  shrunken log2 fold change: -0.0599

## RRIRQRPPRLPRPRPRPVIIPRP
  shrunken log2 fold change: -1.01

## RRIRQRPPRLPRPRPRPYHYPRP
  shrunken log2 fold change: -0.711

## RRIRSRPPRLPRPRPRPDQWPRP
  shrunken log2 fold change: -0.0262

## RRIRHRPPRLPRPRPRPCMVPRP
  shrunken log2 fold change: -0.342

## RRIRNRPPRLPRPRPRPRCSPRP
  shrunken log2 fold change: 0.019

## RRIRRRPPRLPRPRPRPSRFPRP
  shrunken log2 fold change: 0.536

## RRIRERPPRLPRPRPRPEDQPRP
  shrunken log2 fold change: -0.0394

## RRIRQRPPRLPRPRPRPQRPPRP
  shrunken log2 fold change: 0.0996

## RRIRDRPPRLPRPRPRPVIYPRP
  shrunken log2 fold change: 0.011

## RRIRTRPPRLPRPRPRPWVEPRP
  shrunken log2 fold change: -0.297

## RRIRLRPPRLPRPRPRPAHSPRP
  shrunken log2 fold change: 0.0693

## RRIRERPPRLPRPRPRPLHKPRP
  shrunken log2 fold change: -0.0653

## RRIRRRPPRLPRPRPRPFCAPRP
  shrunken log2 fold change: 0.488

## RRIRMRPPRLPRPRPRPFCYPRP
  shrunken log2 fold change: -0.117

## RRIRHRPPRLPRPRPRPMFMPRP
  shrunken log2 fold change: -0.256

## RRIRRRPPRLPRPRPRPDHNPRP
  shrunken log2 fold change: 0.121

## RRIRIRPPRLPRPRPRPCFTPRP
  shrunken log2 fold change: -0.519

## RRIRYRPPRLPRPRPRPYGNPRP
  shrunken log2 fold change: -0.00695

## RRIRHRPPRLPRPRPRPLPRPRP
  shrunken log2 fold change: 0.176

## RRIRLRPPRLPRPRPRPLGYPRP
  shrunken log2 fold change: -1.79

## RRIRHRPPRLPRPRPRPIYCPRP
  shrunken log2 fold change: -0.0143

## RRIRARPPRLPRPRPRPNGYPRP
  shrunken log2 fold change: 0.122

## RRIRERPPRLPRPRPRPHNWPRP
  shrunken log2 fold change: -0.363

## RRIRCRPPRLPRPRPRPFEWPRP
  shrunken log2 fold change: -0.0143

## RRIRHRPPRLPRPRPRPVVMPRP
  shrunken log2 fold change: -0.245

## RRIRERPPRLPRPRPRPYFFPRP
  shrunken log2 fold change: -0.587

## RRIRTRPPRLPRPRPRPSNAPRP
  shrunken log2 fold change: -0.424

## RRIRHRPPRLPRPRPRPKVWPRP
  shrunken log2 fold change: 0.331

## RRIRSRPPRLPRPRPRPEPEPRP
  shrunken log2 fold change: 0.102

## RRIRNRPPRLPRPRPRPDHWPRP
  shrunken log2 fold change: 0.0703

## RRIRWRPPRLPRPRPRPQRDPRP
  shrunken log2 fold change: -0.0245

## RRIRDRPPRLPRPRPRPKVNPRP
  shrunken log2 fold change: -0.287

## RRIRLRPPRLPRPRPRPIGSPRP
  shrunken log2 fold change: -0.0107

## RRIRGRPPRLPRPRPRPMLWPRP
  shrunken log2 fold change: 0.737

## RRIRWRPPRLPRPRPRPDHGPRP
  shrunken log2 fold change: -0.104

## RRIRMRPPRLPRPRPRPTEWPRP
  shrunken log2 fold change: 0.555

## RRIRVRPPRLPRPRPRPGDCPRP
  shrunken log2 fold change: 0.404

## RRIRGRPPRLPRPRPRPPCTPRP
  shrunken log2 fold change: 0.76

## RRIRKRPPRLPRPRPRPRQTPRP
  shrunken log2 fold change: 0.0644

## RRIRQRPPRLPRPRPRPMIQPRP
  shrunken log2 fold change: 0.0718

## RRIRKRPPRLPRPRPRPTENPRP
  shrunken log2 fold change: 0.143

## RRIRHRPPRLPRPRPRPNAIPRP
  shrunken log2 fold change: 0.0158

## RRIRPRPPRLPRPRPRPPKFPRP
  shrunken log2 fold change: 0.0927

## RRIRERPPRLPRPRPRPCYKPRP
  shrunken log2 fold change: -0.901

## RRIRHRPPRLPRPRPRPPWAPRP
  shrunken log2 fold change: 0.226

## RRIRARPPRLPRPRPRPYHKPRP
  shrunken log2 fold change: -0.193

## RRIRKRPPRLPRPRPRPPAWPRP
  shrunken log2 fold change: 0.602

## RRIRKRPPRLPRPRPRPAIIPRP
  shrunken log2 fold change: -0.0297

## RRIRYRPPRLPRPRPRPMGEPRP
  shrunken log2 fold change: 0.0325

## RRIRARPPRLPRPRPRPSKSPRP
  shrunken log2 fold change: 0.0305

## RRIRLRPPRLPRPRPRPWDVPRP
  shrunken log2 fold change: -0.0498

## RRIRERPPRLPRPRPRPQMYPRP
  shrunken log2 fold change: -0.337

## RRIRVRPPRLPRPRPRPDLKPRP
  shrunken log2 fold change: 0.00797

## RRIRSRPPRLPRPRPRPHASPRP
  shrunken log2 fold change: 0.188

## RRIRCRPPRLPRPRPRPALSPRP
  shrunken log2 fold change: 0.282

## RRIRIRPPRLPRPRPRPTCRPRP
  shrunken log2 fold change: -0.103

## RRIRQRPPRLPRPRPRPSELPRP
  shrunken log2 fold change: -0.159

## RRIRIRPPRLPRPRPRPMCDPRP
  shrunken log2 fold change: -0.356

## RRIRRRPPRLPRPRPRPSQMPRP
  shrunken log2 fold change: 0.0447

## RRIRYRPPRLPRPRPRPSVNPRP
  shrunken log2 fold change: -0.177

## RRIRMRPPRLPRPRPRPWKEPRP
  shrunken log2 fold change: 0.0155

## RRIRYRPPRLPRPRPRPFILPRP
  shrunken log2 fold change: -1.19

## RRIRIRPPRLPRPRPRPSVAPRP
  shrunken log2 fold change: 0.011

## RRIRGRPPRLPRPRPRPRDGPRP
  shrunken log2 fold change: 1.27

## RRIRSRPPRLPRPRPRPGWVPRP
  shrunken log2 fold change: 0.549

## RRIRGRPPRLPRPRPRPRVEPRP
  shrunken log2 fold change: 0.432

## RRIRDRPPRLPRPRPRPCPCPRP
  shrunken log2 fold change: -0.478

## RRIRWRPPRLPRPRPRPNFGPRP
  shrunken log2 fold change: 0.174

## RRIRFRPPRLPRPRPRPQIMPRP
  shrunken log2 fold change: -0.736

## RRIRMRPPRLPRPRPRPMKRPRP
  shrunken log2 fold change: 0.573

## RRIRKRPPRLPRPRPRPNTNPRP
  shrunken log2 fold change: -0.0445

## RRIRCRPPRLPRPRPRPRTPPRP
  shrunken log2 fold change: 0.571

## RRIRMRPPRLPRPRPRPIIHPRP
  shrunken log2 fold change: -0.136

## RRIRMRPPRLPRPRPRPNKIPRP
  shrunken log2 fold change: 0.0176

## RRIRQRPPRLPRPRPRPVQTPRP
  shrunken log2 fold change: -0.0915

## RRIRHRPPRLPRPRPRPLNIPRP
  shrunken log2 fold change: -0.386

## RRIRKRPPRLPRPRPRPWFDPRP
  shrunken log2 fold change: -0.0566
